Assay results reported in US20220251619A1.

Molecular target: porcine pancreatic elastase (Merck, Germany, Cat. No. 324682) (porcine) (UniProt P00772)
Assay: cell-based or functional assay

Sequence of UniProt P00772 (P00772 27-266 limits assumed): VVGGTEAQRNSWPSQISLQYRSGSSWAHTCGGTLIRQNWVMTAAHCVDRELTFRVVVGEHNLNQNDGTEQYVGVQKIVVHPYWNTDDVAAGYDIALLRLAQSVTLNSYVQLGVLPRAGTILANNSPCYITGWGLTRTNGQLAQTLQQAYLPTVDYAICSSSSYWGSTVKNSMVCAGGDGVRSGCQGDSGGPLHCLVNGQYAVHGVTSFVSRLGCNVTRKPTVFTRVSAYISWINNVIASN

Substance	% active AAT relative to plasma-derived AAT (elastase inhibition, SAPNA hydrolysis at 410 nm), Assay 1	% active AAT relative to plasma-derived AAT (elastase inhibition, SAPNA hydrolysis at 410 nm), Assay 2	Average % Activity (elastase inhibition, SAPNA hydrolysis at 410 nm)
remodelled rAAT (rAAT incubated with beta1,4-galactosyltransferase, alpha2,3 sialyltransferase from Pasteurella multocida and alpha2,6 sialyltransferase from Photobacterium damselae, then purified) (from UniProt P01009 25-418)	97.1%	93%	95.4%
recombinant alpha-1 antitrypsin produced in CHO-DG44 cells, untreated (from UniProt P01009 25-418)	90.1%	88.6%	89.3%
